The numbers were not newly measured in article PMC5322387, which cites them from elsewhere.

Data set [1] deals with E2 L2 L2 (Homo sapiens) (UniProt P10515). As to the kind of experiment: gel filtration.
The target is the same in data set [2]. As to the kind of experiment: ITC.
In data set [3] the target is E3BP L3 L3 (Homo sapiens) (UniProt O00330). The data set can be described thus: ITC.
Sequence of E3BP L3 L3 (Homo sapiens) (O00330 56-132): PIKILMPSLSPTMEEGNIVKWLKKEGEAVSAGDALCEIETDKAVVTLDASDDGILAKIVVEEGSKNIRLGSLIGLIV

Sequence of E2 L2 L2 (Homo sapiens) (P10515 218-294): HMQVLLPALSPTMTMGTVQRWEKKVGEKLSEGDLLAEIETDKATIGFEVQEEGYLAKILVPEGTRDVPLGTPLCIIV
Sequence of PDK1 (Q15118 29-436): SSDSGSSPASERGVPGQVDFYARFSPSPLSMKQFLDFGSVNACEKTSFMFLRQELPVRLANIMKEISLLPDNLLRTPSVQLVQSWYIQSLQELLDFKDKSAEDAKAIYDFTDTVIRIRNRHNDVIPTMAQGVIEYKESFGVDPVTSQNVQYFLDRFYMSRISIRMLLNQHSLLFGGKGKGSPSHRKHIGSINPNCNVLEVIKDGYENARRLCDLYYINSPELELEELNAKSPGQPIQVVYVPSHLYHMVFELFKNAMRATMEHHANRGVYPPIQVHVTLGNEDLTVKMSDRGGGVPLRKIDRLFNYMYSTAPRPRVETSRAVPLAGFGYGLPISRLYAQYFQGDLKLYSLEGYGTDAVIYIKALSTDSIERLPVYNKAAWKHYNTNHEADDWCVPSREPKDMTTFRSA
Sequence of PDK3 (Q15120 2-406): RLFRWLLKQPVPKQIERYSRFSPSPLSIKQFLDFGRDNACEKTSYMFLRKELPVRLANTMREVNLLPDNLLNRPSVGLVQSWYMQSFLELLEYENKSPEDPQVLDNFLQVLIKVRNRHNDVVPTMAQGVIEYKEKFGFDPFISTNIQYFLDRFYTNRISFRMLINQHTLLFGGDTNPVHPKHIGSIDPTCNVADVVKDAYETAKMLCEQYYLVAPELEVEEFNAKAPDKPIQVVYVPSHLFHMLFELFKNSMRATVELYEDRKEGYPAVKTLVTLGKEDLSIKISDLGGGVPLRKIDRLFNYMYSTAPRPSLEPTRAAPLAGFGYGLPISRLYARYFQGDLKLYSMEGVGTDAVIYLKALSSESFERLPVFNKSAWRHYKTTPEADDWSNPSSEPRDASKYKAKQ
Sequence of PDK4 (Q16654 2-411): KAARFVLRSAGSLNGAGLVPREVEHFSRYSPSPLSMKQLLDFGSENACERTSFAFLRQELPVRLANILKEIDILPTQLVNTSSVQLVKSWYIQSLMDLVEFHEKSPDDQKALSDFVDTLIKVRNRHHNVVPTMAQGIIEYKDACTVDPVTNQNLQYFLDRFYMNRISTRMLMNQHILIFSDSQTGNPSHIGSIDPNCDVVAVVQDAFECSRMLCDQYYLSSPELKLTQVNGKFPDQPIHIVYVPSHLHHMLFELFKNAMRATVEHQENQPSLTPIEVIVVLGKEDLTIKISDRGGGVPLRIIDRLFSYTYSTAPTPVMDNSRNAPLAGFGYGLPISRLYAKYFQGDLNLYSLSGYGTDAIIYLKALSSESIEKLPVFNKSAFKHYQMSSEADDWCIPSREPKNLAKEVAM

As to PDK1 (from UniProt Q15118), the Kd (commonly the free concentration of one partner at which half of the binding sites on the other are occupied at equilibrium, for simple one-to-one binding) with E2 L2 L2 (Homo sapiens) [1] was 10 µM.

Take PDK3 (from UniProt Q15120): in the data set with E2 L2 L2 (Homo sapiens) [2], the Kd was 1.17 µM.

Take PDK4 (from UniProt Q16654): in data set [3], the dissociation constant (Kd) was 5 µM.
